Kd data for one molecule are collected here from patent US20250059282A1.

Test [1] deals with Cyno PD-L2-Fc (cynomolgus). Description: ForteBio, IgG, avid. (In general: BLI is a label-free optical method that tracks binding on a fibre tip over time.)
Test [2] concerns the target Cyno PD-L1-Fc (cynomolgus) (UniProt G7PSE7). Description: ForteBio, IgG, avid.
In the next test the target is Mouse PD-L1-Fc (mouse) (UniProt Q9EP73). Description: ForteBio, IgG, avid.
The target of another test is Mouse PD-L2-Fc (mouse) (UniProt Q9WUL5). As to the kind of experiment: ForteBio, IgG, avid.
Sequence of Mouse PD-L2-Fc (mouse) (Q9WUL5 20-219 limits assumed): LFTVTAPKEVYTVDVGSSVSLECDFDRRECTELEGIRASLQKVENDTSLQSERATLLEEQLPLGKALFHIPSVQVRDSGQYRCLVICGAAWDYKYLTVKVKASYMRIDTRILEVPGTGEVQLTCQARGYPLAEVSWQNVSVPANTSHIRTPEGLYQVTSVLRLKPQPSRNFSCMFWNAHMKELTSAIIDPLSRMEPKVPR
In the next test the target is Human PD-L2-HIS (human) (UniProt Q9BQ51). As to the kind of experiment: ForteBio, IgG, monovalent.
Sequence of Human PD-L2-HIS (human) (Q9BQ51 20-220): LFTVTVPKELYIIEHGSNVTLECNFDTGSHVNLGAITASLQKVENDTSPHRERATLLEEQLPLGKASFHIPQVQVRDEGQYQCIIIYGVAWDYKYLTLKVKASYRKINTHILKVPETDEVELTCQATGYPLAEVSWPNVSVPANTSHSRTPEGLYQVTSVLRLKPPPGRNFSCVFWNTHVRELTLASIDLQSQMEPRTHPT
A further test addresses Human PD-L1-HIS (human) (UniProt Q9NZQ7). Description: ForteBio, IgG, monovalent.

Sequence of Mouse PD-L1-Fc (mouse) (Q9EP73 19-239 limits assumed): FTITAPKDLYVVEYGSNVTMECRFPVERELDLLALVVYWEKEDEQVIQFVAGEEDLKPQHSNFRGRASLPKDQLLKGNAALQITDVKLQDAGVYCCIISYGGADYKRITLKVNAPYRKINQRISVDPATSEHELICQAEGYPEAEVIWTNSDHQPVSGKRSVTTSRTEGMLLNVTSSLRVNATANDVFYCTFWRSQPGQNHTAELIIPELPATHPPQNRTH
Sequence of Human PD-L1-HIS (human) (Q9NZQ7 19-238 limits assumed): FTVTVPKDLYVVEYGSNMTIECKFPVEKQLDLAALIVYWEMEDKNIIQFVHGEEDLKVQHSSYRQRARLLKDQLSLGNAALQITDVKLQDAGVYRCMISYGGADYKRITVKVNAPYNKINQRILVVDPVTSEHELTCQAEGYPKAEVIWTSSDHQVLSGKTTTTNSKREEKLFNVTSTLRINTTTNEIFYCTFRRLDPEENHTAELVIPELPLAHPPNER
Sequence of Cyno PD-L1-Fc (cynomolgus) (G7PSE7 entry or part of it limits assumed): as the sequence (Q9NZQ7 19-238 limits assumed) above, with A33T, A34S, S62N, R68Q, Q82R, F173L, T185A, T192I, H215L counted along it
Sequence of Cyno PD-L2-Fc (cynomolgus) (chain, as listed by the source): as the sequence (Q9BQ51 20-220) above, with V19A, P62S, S67L, V139I, P166H, T178A, H179Q, M194I counted along it

B1: BiPDL3-54 (antibody, part only; not given: light chain variable domain, V domains shown, part only)
VH: QVQLQQWGAGLLKPSETLSLTCAVYGGSLSGYPWSWIRQPPGKGLEWIGETDVSGWTDYNPSLKSRVTISVDTSKNQFSLKLSSVTAADTAVYYCARDGRRMGTPSFDIWGQGTMVTVSS
The term Kd denotes a measure of binding affinity in units of concentration. Lower therefore signals tighter binding. Regarding B1, the Kd was found to be 0.621 nM in test [1]; 0.442 nM in test [2]; 2.97 nM with Mouse PD-L1-Fc (mouse); 0.694 nM with Mouse PD-L2-Fc (mouse); 2.2 nM in the test with Human PD-L2-HIS (human); 15.5 nM in the test with Human PD-L1-HIS (human).
